The nanobody polyreactivity screen of Harvey et al. (2022)

Assay: yeast display, Sf9 membrane polyspecificity reagent, FACS + sequencing; frameworks hold sequencing errors
Procedure, shortened: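 Nanobodies came from a synthetic yeast display library in Saccharomyces cerevisiae BJ5465, induced with galactose for 36–48 hours and stained for 1 hour at 4 °C with 10% biotinylated, detergent-solubilized Sf9 membrane reagent. Cells were enriched on streptavidin microbeads and then FACS-sorted, with low and high (top ~1%) gates set on anti-HA fluorescence for expression and streptavidin fluorescence for reagent binding. Each polyreactivity label reflects the gate a clone came from. Genes were amplified by colony PCR, sequenced by MiSeq 2 × 250 and filtered by CDR length.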

Row | Sequence | polyreactivity (PSR sort gate)
1 | QVQLQESGGVLVQAVDRQRLSCAASGNIFLFTDMGWYRQAPGKERELVAAINAGSTTYYADSVKGRFTISRDNAKNTVYLQMNSLNPEDTEVYYCAVYYLGSGTFGYWGQGAQVTVSS | high polyreactivity
2 | QVQLQESGGVQAGGSLRLSCAASGYISRSDVMGWYRQAPVKERELVATINNGTLTYYADSVKGRFTISRDNAKNTVYLQMNSLKPEDTPVHYCAVLQSDTDSLYYWGQGSQVTVSS | low polyreactivity
3 | QVQLQESGRGLVQAGGSLLSCAASGTISWVDEMGWYRHAPGNERELVAGIAGGGNTNYADSLKGRFTISRDNAKNTVYLHMNSQDTAVYYCAVVVFGRGTHIYWCQGTQVTVSS | high polyreactivity
4 | QVQLQESGRRPGAAGGSPRMSCAASGNIFCVAVMGRYRQAPGKERELVASIGFGCTTYYADSVKCRFTISRDNAKNTVYLQMFSLKPEDTAVYYCAAPHYDWGELDYWGQGTQVPVSS | low polyreactivity
5 | QVQLQESGRRPGAAGGSPRMSCAASGNIFWVAVMGRYRQAPGKERELVASIGFGCTTYYADSVKCRFTISRDNAKKTVYLQMISLKPEDTAVYYCAAPNYDWGELDYWGQGTQVPVSS | low polyreactivity
6 | QVQLQESGSGLVQAGGSLRLSCAASGNISHYNDMGWYRQAPGKEREPVATINSGSITYYADSVKGRFTISRDNAKNTVYLQMNSLKPEDTAVYYCAVKQHGYFYLDYWGQGTQVTVSS | high polyreactivity
7 | QVQLQESGVGLVQASGSIFHEPNMGSYRQAPGKERELVAGISSGANTYYADSVKGRFTISRDNAKNTVYLQMNSLKPEDTAVYHCAVVVHLYTDLRYWGQDTQVTVSS | high polyreactivity
8 | QVQLQESRGGLVKAGGSLRLSCAATGNISPRDAMGWYRQAPGEERDLVASNAYSAITYYADGVKGRYTISRDNAKNTVYLQMNSLKPEDTEVYYCAVYQFTYPVFPAYWGQGTQVTVSS | low polyreactivity
9 | QVQLQESRGGLVQAGGSLRLSCAASGTISDRAGMGWYRQAPAKNAIVATIDRGTNTNYADSVKGRFTISRDNAKNTVYLQMNSLKPEDTAVYNCAADGRYYIYLDYWGQGTQVTVSS | low polyreactivity
10 | QVQLQESSGGLVQAGGSLRMSCAASGTIFHFHIMGWYRQAPGKESEFVAAISYGTSTYYADSVKGRFTISRDNAKNTVYLQMNSQKPEDSAVNYCAVYDYLEVYCWYWGQGTQVTVSS | low polyreactivity
11 | QVQLQESVDGLVQAGGSLSLSSAASGTIFSDYGMGGYRQAPGKERELLAGISDGCNTNYTDSVKGRCTISRDNAHRVSADEQPETGGYRGVLLRGSERWLLFYVYWGQGTQVTVSS | high polyreactivity
12 | QVQLQESVGGLVQAGGSLRLSCAASGNIFPTDRMGWYRQAPGKELEFVATISDGGSTNYADSVKGRFTISRDNAKNTVYLQMNSLKPEDTAVYYCAVWSLGRWRHYYWGQGTQVTVSS | low polyreactivity
13 | QVQLQESVGGLVQAGGSLRLSCAASGNIFPTDRMGWYRQAPGKELEFVATISHGGSTNYADSVKGRFTISRDNAKNTVYLQMNSLKPEDTAVYYCAVWSLGRWRHYYWGQVTQVTVSS | low polyreactivity
14 | QVQLQESVGGLVQAGGTLRMSCAASGSFSADEDMGWYRQAQGKEREFVAGISVGGNTNYADSVKGRFTISRENAKNTVYLQINSLKPEETAVYYCAADYKPTSRSNTYYYWGQGTQVTVSS | high polyreactivity
15 | QVQLQGSGGGLVQAGGSLRLSCAASGYNFQNVPMGWNRQAPGKERELVAGIDNGTSTNYADSVNGRFTISRDNAKNTVYLQMNSLKPEDTAVYYCAAAGQADDTLGYWGQGTQVTVSS | low polyreactivity
16 | QVQLQVSGGDLVQAGGSLRLSCAASGTIYGLISMGWYRQAPGKEREFVAAITDGGNTNYADSVKGRFTISRDNAKYTVYLQMISLKPEDTAVYYCAVLFSDDAYYAYWGQGTQVTVSS | low polyreactivity
17 | QVQLQVSGGGLVQAGGNLRLSCAASGTISDSVGMGWYRQAPGKEREFVAGITLGGITNYADSVRGRFTISRDNGKNLYLQMKSLKPEETAVYYCAVDDYRYINYEFWGQGTQVTVSS | high polyreactivity
18 | QVQLQVSGGGLVQAGGNLRLSCASSCTISESFGMGWNRQAPGKEREFVAGITMGGITNYADSVRGRFTISRDNAKNMYLQMNSLKPEDTAVYYCEVDDYRYINYEFWGQGTQVSVSS | high polyreactivity
19 | QVQLQVSGGVLVQAGGSLRLTCAASGSIFLTSEMGWYRQAPGKERELVAAIATGTSTNYADSVKGRFTISRDNAKNTVYLQMNSLKPEDTAVYYCETYHYWGQGTQVTVSS | low polyreactivity
20 | QVQLRESGCGLVQAGGNLRLSCAARGNIFDADIMGWYRQAPGKERELVASITDGGSTNYADSVRCRFTISRDNAKNTVYLQMNSLKPEDTAVYYCTAIAYPDIPTYFDHDSDYFYWGQGTQVTVSS | high polyreactivity
21 | QVQLVASAGGLVQAGGSLRFSCAASGRSFKRYTMGWYRQAPGKERELVAAITKRADRTNYADSVKGRFTISRDNAKNTVYLQMNSLKPEDTAVYYCYADGQNDLPSNGYISYKYDYWGQGTQVTVSS | low polyreactivity
22 | QVQLVASGGGLDQAGGSLRLSCAASGFPFQENAMGWYRQAPGKERELVAAISYGGGSPSYADSVKGRFTISRDNAKNTVYVQMNSLKPEDNAVYYCAADGGSAYAWYFAELYGYWGQGTQVTVSS | low polyreactivity

Row | Sequence | polyreactivity (PSR sort gate)
23 | QVQLVASGGGLLQAGGSLRLSCAASGSIVGLYAMGWYRQAPGNETELVAAISWSAGRTYYADTVKGRFTISRDNAKNTVYLQMNSLIPEETAVYYCNAPYLHYVFVFTDYSQRYDYWGQGTQVTVSS | high polyreactivity
24 | QVQLVASGGGLVQAGGSLRLSCAASGSIFSYYTMGWYSQAPGKERELVASISRSGGRTNYADSVKGRFTISRDNAKNTVYLQMNSLKPEDTAVYYCKTERWGPYPHKRYNYWGQGTQVTVSS | high polyreactivity
25 | QVQLVASGGGLVQAGGSLRLSCAASGSISFYNAMGWYRQAPGKERELVAAINRSGGSTNYADSVKGLFTISRDNGKNTVYLQMNSLKPEDTAVYYCAAVSSKGNRHVYDYWGQGTQVTGSS | low polyreactivity
26 | QVQLVASGGGLVQAGGSLRLSCAASGSTFYYNAMGWSRQAPGKERELVAVISTSDGSTNYADSVKRRFTISSDNAKNTVYLQMISLKPEDTAVYYCAADYSESRRFDYWGQGTQVTVSS | low polyreactivity
27 | QVQLVASGGGLVQAGGSLRLSCAATGSIFYINTMGWYRQAPGKERELVAAINFSDGRTYYADSVMGRFTISRDNAKNTVYLQIHSLKPEDTAVYYCAADVYPSEYDYWGQGTQVTVSS | low polyreactivity
28 | QVQLVASGGGLVQSGGSLRLSCASSGSTFFRYAMGWYRHAPGKERELVAAISWSGGPTYYADSVKGRFTISRDNAKNTVFLQMNSLKPQDTAVYYCNAVRQGHILDYWGQGSQVTVSS | low polyreactivity
29 | QVQLVDSAGALVQAGGSLRLSCAASGRTFRYNAMGWYRQAPGKERELVAAITQSGGSTYYADSVKGRFTISRDNAKNTVYLQMNSQKPEDTAVYYCAKVRERINYDYWGQGTQVTVSS | low polyreactivity
30 | QVQLVDSAGCLVQAGGSLRLSCAASGRIFVYYVMGWYRQAPGKERELVASITFRGSRTYYADSVKGRFTISRDYAKNTVYLQMISLKPEDTAVYYCNADVWASGSRGDGYWGQGTQVTVAS | low polyreactivity
31 | QVQLVDSAGCLVQAGGTLRLSGSASGSIFDAYAMGWYRQAPGKERELVASITSGGRTTYADSVKGRFTISRDNALNTVYLQMNSLKPEDTAVYYCAALRPGPRDDYWGQGSQVTVSS | high polyreactivity
32 | QVQLVDSCGGLVQAGGSLRLSCHASGLTFFANAMGWYRQEHGKERELVAAITRRGGSTYYADSVKGRFTNSRDNAKNTVYLQMNSLKPEDTAVYYCAAEPRSVPAQYRSGDYWGQGTQVTVSS | high polyreactivity
33 | QVQLVDSGGALVQAGGSLRLSCAASGRTFRPNAMGWYRQAPGKERELVAVISWRGGRTYYADYVKGRFTISRDIAKNTVYLQMNSLKPEDTAVYYCGARVYLSGYGYNYWGQGTHVTVSS | high polyreactivity
34 | QVQLVDSGGAVVQAGGSLRLSCAASGYTFYRYAMGWYRQAPGKERELVAAMSRRGTRTYYADSVKGRFTISRDNAKNTVYLQMNSLKPEDTAVYFCNARRVRDVWWQLKRGDYWGQATQVTVSS | high polyreactivity
35 | QVQLVDSGGGIVQAGGSLRLSCAASGFIIAHYAMGWYRHAPGKERELVAAISWNGGRTYYADSVKGRFTISRDNAKNSVFFQRISLKPEDTAVYYCAADNRGTTVYYRNYYWGQGTQVTVSS | high polyreactivity
36 | QVQLVDSGGGLGQAGGSLRLSCAASGIIISGYAMGWYRQAPGKERELVASIRSGSNTYYADSVKGRFTISRDNAKNTVYLQKNSLNPEDTAVYYCAARVVPATFRFIRYPNTYYYWGQGSQVTVSS | low polyreactivity
37 | QVQLVDSGGGLVQAAGSLRLSCAASGRIFYYNAKGCYRQAPVKERELVAAITRSGGSTYYADSVKGRFTSSRDNAKHTVYLQMNSLKPEDTAVYYCAKPDRTGWLDGDYWGQGTQVTVSS | low polyreactivity
38 | QVQLVDSGGGLVQAGGILRLSCPASGLIIRKNAMGWYRQAPGKERELVAAISYNGASTYYADSVKGRFTISRDNAKNTVYLQMNSLKPEDTAVYYCAAYAGYSDQARYYYWGQGTQVTVSS | high polyreactivity
39 | QVQLVDSGGGLVQAGGSHRLSCAASGFTFPYNAMGWYRQAPGKERELVAANSSTGGITYYADSVKGRFTISRDNAKNTVYLQMNSLKPEDTAVYYCGWYDYWGQGTQVTVSS | low polyreactivity
40 | QVQLVDSGGGLVQAGGSHRLSCAASGSIFPRYAMGWYRQAPGKERELVAAITRSGGSTYADSVKGRFTISRDNAKNTVYLQMNSLKPEDTAVYYCNGKVYPWGYYTSWRTVSPYDYWGQGTQVTVSS | high polyreactivity
41 | QVQLVDSGGGLVQAGGSLLLSCAASGSISYQNAMGWYRQAPGKERELVAANSGDGDSTYYADSVKGRFTISRDNAKNTVYLQMNRLKPEDTAVYYCAAEPNVYFSVFVLFTSDYWGQGTLVTVSS | low polyreactivity
42 | QVQLVDSGGGLVQAGGSLLLSCSASGSIFFSYAMGLYRQAPGKEREFVAAINSDDASTYADSVKGRFTISRDNAKNTVYLQMNSLKPEDTAVYYCAASFLWSWYDYWGQGTQVTVSS | low polyreactivity
43 | QVQLVDSGGGLVQAGGSLPLSCAASGSIFDDYAMGWNRKAPGKERELVAAISGGVSTNYADSVKGRFTISRDNAKKTDYLQINSLKPEDTAVYYCNADYARAYIHEYWGQGTQVTVSS | low polyreactivity
